The text below walks through data of patent publication US20260184814A1, “BROADLY NE[…] INFLUENZA NEURAMINIDASE” (priority 2022, published 2026).

Several values for one entry are separate records, joined by “and”; a condition that tells them apart may be missing. Equal entries are not always repeated. Where two headings read alike, the source gives them in different places.

Assay [1] has as its target N9. Briefly: Bio-Layer Interferometry (BLI); printed as kdis. In general terms: BLI is a label-free optical method that tracks binding on a fibre tip over time.
Assay [2] addresses N1. Nature of the assay: Bio-Layer Interferometry (BLI); printed as kdis.
For assay [3], the target named is N2. Nature of the assay: Bio-Layer Interferometry (BLI); printed as kdis.
The target in assay [4] is N9. Briefly: Bio-Layer Interferometry (BLI).
The target of assay [5] is N1. Nature of the assay: Bio-Layer Interferometry (BLI).
In assay [6] the target is N2. Nature of the assay: Bio-Layer Interferometry (BLI).
Assay [7] deals with N2 neuraminidase from A/Leningrad/134/17/57 (Influenza A virus A/Leningrad/134/17/57) (UniProt Q67214). Briefly: flow cytometry, NA transiently expressed on Expi-CHO cells. On the technique in general: Flow cytometry measures light scatter and fluorescence of single cells or particles in a stream.
Assay [8] has as its target IBV neuraminidase from B/Lee/10/1940 (Ancestral) (Influenza B virus B/Lee/10/1940) (UniProt P03474). The description is as above.
In assay [9] the target is N7 neuraminidase from A/Netherlands/078/03 (Influenza A virus A/Netherlands/078/03). The description is as above.
Assay [10] concerns the target N9 neuraminidase from A/Anhui/1/2013 (Influenza A virus A/Anhui/1/2013 (H7N9)). The description is as above.
Assay [11] deals with N4 A/MALLARD DUCK/…/30/2011 (Influenza A virus). The description is as above.
Assay [12] addresses N1 neuraminidase from A/Stockholm/18/2007 (Influenza A virus A/Stockholm/18/2007). The description is as above.
Assay [13] addresses N6 neuraminidase from A/swine/Ontario/01911/1/99 (Influenza A virus A/swine/Ontario/01911/1/99). The assay is described as above.
For assay [14], the target named is N2 A/HONG KONG/68 (Influenza A virus). The assay is described as above.
Assay [15] has as its target B/MALAYSIA/3120318925/2013 (YAMAGATA) (Influenza B virus). The description is as above.
Assay [16] addresses N8 A/HARBOR SEAL/NEW …/179629/2011 (Influenza A virus). Described as above.
The target of assay [17] is N3 neuraminidase from A/Canada/rv504/2004 (Influenza A virus A/Canada/rv504/2004). Described as above.
For assay [18], the target named is N5 A/AQUATIC BIRD/KOREA/CN5/2009 (Influenza A virus). Described as above.
In assay [19] the target is IBV neuraminidase from B/Malaysia/2506/2004 (Victoria) (Influenza B virus B/Malaysia/2506/2004). The description is as above.
Assay [20] addresses N2 neuraminidase from A/Washington/01/2007 (Influenza A virus A/Washington/01/2007). The description is as above.
Assay [21] concerns the target IBV neuraminidase from B/Yamanashi/166/1998 (Yamagata) (Influenza B virus B/Yamanashi/166/1998). The assay is described as above.
In assay [22] the target is B/WISCONSIN/1/2010 (YAMAGATA) (Influenza B virus). The assay is described as above.
Assay [23] concerns the target human FcγRIIb (human) (UniProt P31994). Briefly: Table B summary, vs fucosylated wild-type human IgG1.
For assay [24], the target named is human FcγRIIIa (F158 allele) (human) (UniProt P08637).
Assay [25] addresses human FcγRIIb (human) (UniProt P31994).
Assay [26] deals with human FcγRIIIa (V158 allele) (human) (UniProt P08637).
Assay [27] deals with human FcγRIIa (H131 allele) (human) (UniProt P12318).
For assay [28], the target named is human FcRn (human) (UniProt P55899). Nature of the assay: MSD [cont'd].
Assay [29] deals with human FcγRIIIa (F158 allele) (human) (UniProt P08637). Nature of the assay: MSD [cont'd].
In assay [30] the target is human FcγRIIIa (V158 allele) (human) (UniProt P08637). Briefly: MSD [cont'd].
The next assay addresses human C1q (human) (UniProt P02745). Nature of the assay: MSD [cont'd].
Another assay has as its target human FcγRIIIb (human) (UniProt O75015). Briefly: MSD.
The target of assay [31] is human FcγRIIIa (F158 allele) (human) (UniProt P08637). Nature of the assay: MSD.
In assay [32] the target is human FcγRIIb (human) (UniProt P31994). Nature of the assay: MSD.
Assay [33] addresses human FcγRIIIa (V158 allele) (human) (UniProt P08637). Nature of the assay: MSD.
The target in assay [34] is human FcγRIIa (H131 allele) (human) (UniProt P12318). Briefly: MSD.
Assay [35] has as its target human FcγRIIa (R131 allele) (human) (UniProt P12318). Nature of the assay: MSD.
Assay [36] has as its target human FcRn (human) (UniProt P55899). Nature of the assay: MSD, pH 6 [cont'd].
Assay [37] addresses N1 neuraminidase from A/Swine/Jiangsu/J004/2018 (Influenza A virus A/Swine/Jiangsu/J004/2018 (H1N1)).
The next assay deals with NA-9. Briefly: BLI, antibody loaded on the sensor (Loading Sample ID: FNI9), NA-9 as sample.
The target of assay [38] is N1 neuraminidase from A/Swine/Jiangsu/J004/2018 (Influenza A virus A/Swine/Jiangsu/J004/2018 (H1N1)). Nature of the assay: flow cytometry, cells infected with A/Swine/Jiangsu/J004/2018, antibody 10 µg/ml.
Assay [39] shares this target. Briefly: flow cytometry, cells infected with A/Swine/Jiangsu/J004/2018, antibody 50 µg/ml.
Assay [40] shares this target. Nature of the assay: flow cytometry, cells infected with A/Swine/Jiangsu/J004/2018, antibody 2 µg/ml.
For assay [41], the target named is N2 neuraminidase from A/South Australia/34/2019 (Influenza A virus A/South Australia/34/2019).
The target of another assay is N9 NA (FIGS. 96A-96C). Briefly: Bio-Layer Interferometry (BLI).
For assay [42], the target named is N1 neuraminidase from A/Swine/Jiangsu/J004/2018 (Influenza A virus A/Swine/Jiangsu/J004/2018 (H1N1)). This is another data set of the same source.
Assay [43] has as its target B/BRISBANE/60/2008 (VICTORIA) (Influenza B virus). Nature of the assay: flow cytometry, NA transiently expressed on Expi-CHO cells.
Assay [44] concerns the target N2 neuraminidase from A/South Australia/34/2019 (Influenza A virus A/South Australia/34/2019). The source holds these as a separate data set.
Assay [45] has as its target N1 neuraminidase from A/Swine/Jiangsu/J004/2018 (Influenza A virus A/Swine/Jiangsu/J004/2018 (H1N1)). The source holds these as a separate data set.

Sequence of human FcγRIIa (H131 allele) (human) (P12318 34-218 limits assumed): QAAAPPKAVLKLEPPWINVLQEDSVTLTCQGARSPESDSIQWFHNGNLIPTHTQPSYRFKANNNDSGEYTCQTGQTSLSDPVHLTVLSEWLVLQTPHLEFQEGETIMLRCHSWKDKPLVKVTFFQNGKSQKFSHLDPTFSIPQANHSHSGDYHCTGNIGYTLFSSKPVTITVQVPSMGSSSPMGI
Sequence of human FcγRIIIa (V158 allele) (human) (P08637 17-208 F176V limits assumed): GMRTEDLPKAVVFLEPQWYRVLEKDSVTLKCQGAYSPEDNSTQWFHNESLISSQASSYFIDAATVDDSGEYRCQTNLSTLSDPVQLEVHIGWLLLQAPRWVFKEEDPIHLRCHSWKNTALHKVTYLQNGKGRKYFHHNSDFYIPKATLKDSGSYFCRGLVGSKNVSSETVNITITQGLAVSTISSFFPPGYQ
Sequence of human FcγRIIIa (F158 allele) (human) (P08637 17-208 limits assumed): as the sequence (P08637 17-208 F176V limits assumed) above, with V160F counted along it
Sequence of human FcγRIIb (human) (P31994 43-217 limits assumed): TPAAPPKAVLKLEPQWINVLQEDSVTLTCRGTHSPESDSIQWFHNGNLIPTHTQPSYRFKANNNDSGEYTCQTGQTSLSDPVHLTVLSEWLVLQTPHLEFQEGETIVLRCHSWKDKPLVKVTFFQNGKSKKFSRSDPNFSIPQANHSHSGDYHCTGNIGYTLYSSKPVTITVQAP
Sequence of human FcγRIIa (R131 allele) (human) (P12318 34-218 H167R limits assumed): as the sequence (P12318 34-218 limits assumed) above, with H134R counted along it
Sequence of human C1q (human) (P02745 23-245 limits assumed, chain 1 of 3): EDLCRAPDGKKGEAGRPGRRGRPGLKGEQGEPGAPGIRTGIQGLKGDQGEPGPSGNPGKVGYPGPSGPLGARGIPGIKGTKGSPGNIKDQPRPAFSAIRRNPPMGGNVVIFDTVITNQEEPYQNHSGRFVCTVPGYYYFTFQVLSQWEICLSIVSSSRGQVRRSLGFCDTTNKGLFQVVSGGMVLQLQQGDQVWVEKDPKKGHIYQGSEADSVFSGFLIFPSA
Sequence of human C1q (human) (P02746 28-253 limits assumed, chain 2 of 3, further chain): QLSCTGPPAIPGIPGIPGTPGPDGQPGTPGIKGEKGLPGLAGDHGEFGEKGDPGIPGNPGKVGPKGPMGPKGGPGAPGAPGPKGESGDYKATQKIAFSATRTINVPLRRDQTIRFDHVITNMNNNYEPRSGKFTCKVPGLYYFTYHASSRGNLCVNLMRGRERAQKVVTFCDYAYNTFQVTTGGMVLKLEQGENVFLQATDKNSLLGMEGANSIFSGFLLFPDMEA
Sequence of human C1q (human) (P02747 29-245 limits assumed, chain 3 of 3, further chain): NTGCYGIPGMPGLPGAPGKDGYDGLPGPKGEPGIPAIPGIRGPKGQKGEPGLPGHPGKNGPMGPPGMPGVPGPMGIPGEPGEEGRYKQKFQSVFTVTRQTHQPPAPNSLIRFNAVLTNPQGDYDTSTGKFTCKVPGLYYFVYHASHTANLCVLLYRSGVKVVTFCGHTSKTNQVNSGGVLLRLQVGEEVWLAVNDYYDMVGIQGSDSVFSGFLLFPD
Sequence of human FcRn (human) (P55899 24-297 limits assumed, chain 1 of 2): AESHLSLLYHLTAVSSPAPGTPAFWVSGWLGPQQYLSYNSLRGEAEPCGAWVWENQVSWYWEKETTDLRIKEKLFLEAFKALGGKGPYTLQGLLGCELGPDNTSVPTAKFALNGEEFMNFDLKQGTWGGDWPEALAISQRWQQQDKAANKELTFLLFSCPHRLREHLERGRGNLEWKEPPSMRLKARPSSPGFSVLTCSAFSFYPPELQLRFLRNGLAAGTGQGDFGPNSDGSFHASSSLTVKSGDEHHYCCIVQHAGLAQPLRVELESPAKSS
Sequence of human FcRn (human) (chain, as listed by the source limits assumed, chain 2 of 2): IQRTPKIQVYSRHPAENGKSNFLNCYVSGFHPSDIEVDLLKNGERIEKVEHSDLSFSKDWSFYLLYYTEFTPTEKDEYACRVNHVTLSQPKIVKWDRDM
Sequence of human FcγRIIIb (human) (O75015 17-200 limits assumed): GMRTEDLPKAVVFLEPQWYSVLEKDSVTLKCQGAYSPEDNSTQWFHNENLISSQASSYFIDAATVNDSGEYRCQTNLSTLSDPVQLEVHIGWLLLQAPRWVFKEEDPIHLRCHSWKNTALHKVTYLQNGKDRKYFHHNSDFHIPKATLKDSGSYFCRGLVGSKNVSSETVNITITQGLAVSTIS

With 1G01 (antibody), the off-rate constant (koff) in the assay with N9 [1] was less than 1e-07 s⁻¹; with N1 [2], 4.79e-05 s⁻¹; in the assay with N2 [3], less than 1e-07 s⁻¹. For the same substance, the Kd with N9 [4] is less than 1 pM; with N1 [5], 868 pM; with N2 [6], less than 1 pM. For the same substance, the association rate constant (kon) in the assay with N9 [4] was found to be 106000 M⁻¹ s⁻¹; with N1 [5] it was 55100 M⁻¹ s⁻¹; with N2 [6], 40200 M⁻¹ s⁻¹. Also, the lowest concentration at which binding was observed (EC50 scale class) in [7] came to 0.4 µg/mL; in assay [8], 10 µg/mL; in assay [9], 0.4 µg/mL; in [10], 0.4 µg/mL; in assay [11], 0.4 µg/mL; in assay [12] it was 0.4 µg/mL. The lowest concentration at which binding was observed (EC50 scale class) in [13] was 0.4 µg/mL; in assay [14], 0.4 µg/mL; in assay [15] it was 10 µg/mL; in [16], 0.4 µg/mL; in [17], 0.4 µg/mL; in assay [18] it was 2 µg/mL. Also, the lowest concentration at which binding was observed (EC50 scale class) in [19] is 0.4 µg/mL; in [20], 0.4 µg/mL; in assay [21] it was 2 µg/mL; in assay [22], 2 µg/mL.

In the case of “IgG1 antibody with Fc variant G236A_R292P”, the fold-change in binding vs fucosylated wild-type human IgG1 with human FcγRIIb (human) [23] was found to be 0.5 fold. Besides, the FcγR reporter signaling, fold-change vs wt [cont'd] came out at 0.29 fold in assay [24], 0.15 fold in the assay with human FcγRIIb (human) [25], 0.54 fold in [26] and 1.47 fold in assay [27]. In addition, the fold-change vs wt with human FcRn (human) [28] was determined as 0.81 fold; in the assay with human C1q (human), 0.13 fold; with human FcγRIIIb (human) it was 0.95 fold; in [31], 0.6 fold; with human FcγRIIb (human) [32] it was 0.45 fold; in assay [33] it was 0.41 fold. The fold-change vs wt is 5.65 fold in [34] and 1.04 fold in assay [35]. Moreover, the fold-change to WT Fc is 0.603 fold in assay [29]; 0.411 fold in assay [30]; 0.125 fold in the assay with human C1q (human); 0.446 fold in the assay with human FcγRIIb (human) [32]; 5.65 fold in [34]; 1.04 fold in assay [35]. In addition, in the assay with human FcRn (human) [36], the fold-change to WT Fc amounted to 0.809 fold.

FNI9 (antibody): the % of cells in the Alexa 647-A positive gate in assay [37] is 78%; in [38] it was 83.5%; in assay [39] it was 84%; in assay [40] it was 82.1%. Moreover, the Kd with NA-9 is 88 pM; in the assay with N9 NA (FIGS. 96A-96C) it was less than 1 pM; in the assay with N9 [4] it was less than 1 pM; with N1 [5], 16.4 pM; with N2 [6], less than 1 pM. The % Alexa 647-A+ cells in assay [41] is 57% and 68.8%; in [42] it was 84% and 83.5%; in [44], 66.1% and 71.3%; in [45], 82.1% and 78%. The lowest concentration at which binding was observed (EC50 scale class) in assay [9] is 50 µg/mL; in assay [10], 0.4 µg/mL; in assay [11] it was 0.4 µg/mL; in assay [12], 0.4 µg/mL; in [13] it was 0.4 µg/mL; in assay [14], 0.4 µg/mL. Further, the lowest concentration at which binding was observed (EC50 scale class) in assay [15] was determined as 0.4 µg/mL; in assay [16], 50 µg/mL; in [17] it was 0.4 µg/mL; in assay [19], 0.4 µg/mL; in assay [21] it was 0.4 µg/mL; in assay [43], 0.4 µg/mL. For the same substance, the lowest concentration at which binding was observed (EC50 scale class) in assay [22] was 0.4 µg/mL.

Usually koff stands for the first-order rate constant of dissociation. A word on the Kd: it is the equilibrium constant for the complex coming apart. Lower therefore signals tighter binding. As usually defined, the kon is the rate constant with which the complex forms. Read a high kon as faster complex formation.
